# T1: endogenous PDK1 (human (endogenous in A375)), O15530
# T1 chain: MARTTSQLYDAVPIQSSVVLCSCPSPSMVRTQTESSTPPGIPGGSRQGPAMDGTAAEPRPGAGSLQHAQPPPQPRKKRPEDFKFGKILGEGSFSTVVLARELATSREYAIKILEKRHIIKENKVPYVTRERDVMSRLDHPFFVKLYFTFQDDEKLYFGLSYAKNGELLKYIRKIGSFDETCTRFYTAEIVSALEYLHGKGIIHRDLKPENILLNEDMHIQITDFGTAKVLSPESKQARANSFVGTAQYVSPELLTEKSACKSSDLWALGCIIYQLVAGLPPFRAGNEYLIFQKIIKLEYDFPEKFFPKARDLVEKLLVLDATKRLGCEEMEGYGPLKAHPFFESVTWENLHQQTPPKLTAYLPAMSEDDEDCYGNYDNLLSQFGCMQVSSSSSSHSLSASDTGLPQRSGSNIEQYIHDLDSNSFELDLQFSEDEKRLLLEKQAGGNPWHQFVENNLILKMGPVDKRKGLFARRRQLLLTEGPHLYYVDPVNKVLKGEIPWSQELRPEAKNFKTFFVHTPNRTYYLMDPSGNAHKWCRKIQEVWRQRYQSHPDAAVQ
# T2: PDK1 (exogenous, HA- or Flag-tagged) (human), O15530
# T2 chain: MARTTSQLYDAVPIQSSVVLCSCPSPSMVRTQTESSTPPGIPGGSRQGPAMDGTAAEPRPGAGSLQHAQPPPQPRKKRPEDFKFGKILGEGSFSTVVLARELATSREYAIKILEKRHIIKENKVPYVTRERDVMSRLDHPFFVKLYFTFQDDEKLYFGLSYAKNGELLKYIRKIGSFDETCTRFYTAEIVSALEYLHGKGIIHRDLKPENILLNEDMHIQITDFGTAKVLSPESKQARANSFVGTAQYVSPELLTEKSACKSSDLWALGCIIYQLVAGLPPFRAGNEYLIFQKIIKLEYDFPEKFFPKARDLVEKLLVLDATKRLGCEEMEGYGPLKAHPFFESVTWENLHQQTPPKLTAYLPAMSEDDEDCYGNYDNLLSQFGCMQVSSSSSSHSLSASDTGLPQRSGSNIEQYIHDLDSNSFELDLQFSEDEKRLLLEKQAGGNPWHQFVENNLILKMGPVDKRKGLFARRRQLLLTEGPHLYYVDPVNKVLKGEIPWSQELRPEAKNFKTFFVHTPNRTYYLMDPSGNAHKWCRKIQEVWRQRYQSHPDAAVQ
# B1: endogenous PDK1, O15530 1-556 (enzyme)
# chain: MARTTSQLYDAVPIQSSVVLCSCPSPSMVRTQTESSTPPGIPGGSRQGPAMDGTAAEPRPGAGSLQHAQPPPQPRKKRPEDFKFGKILGEGSFSTVVLARELATSREYAIKILEKRHIIKENKVPYVTRERDVMSRLDHPFFVKLYFTFQDDEKLYFGLSYAKNGELLKYIRKIGSFDETCTRFYTAEIVSALEYLHGKGIIHRDLKPENILLNEDMHIQITDFGTAKVLSPESKQARANSFVGTAQYVSPELLTEKSACKSSDLWALGCIIYQLVAGLPPFRAGNEYLIFQKIIKLEYDFPEKFFPKARDLVEKLLVLDATKRLGCEEMEGYGPLKAHPFFESVTWENLHQQTPPKLTAYLPAMSEDDEDCYGNYDNLLSQFGCMQVSSSSSSHSLSASDTGLPQRSGSNIEQYIHDLDSNSFELDLQFSEDEKRLLLEKQAGGNPWHQFVENNLILKMGPVDKRKGLFARRRQLLLTEGPHLYYVDPVNKVLKGEIPWSQELRPEAKNFKTFFVHTPNRTYYLMDPSGNAHKWCRKIQEVWRQRYQSHPDAAVQ
# B2: PDK1 (exogenous, HA- or Flag-tagged), O15530 1-556 (enzyme)
# chain: MARTTSQLYDAVPIQSSVVLCSCPSPSMVRTQTESSTPPGIPGGSRQGPAMDGTAAEPRPGAGSLQHAQPPPQPRKKRPEDFKFGKILGEGSFSTVVLARELATSREYAIKILEKRHIIKENKVPYVTRERDVMSRLDHPFFVKLYFTFQDDEKLYFGLSYAKNGELLKYIRKIGSFDETCTRFYTAEIVSALEYLHGKGIIHRDLKPENILLNEDMHIQITDFGTAKVLSPESKQARANSFVGTAQYVSPELLTEKSACKSSDLWALGCIIYQLVAGLPPFRAGNEYLIFQKIIKLEYDFPEKFFPKARDLVEKLLVLDATKRLGCEEMEGYGPLKAHPFFESVTWENLHQQTPPKLTAYLPAMSEDDEDCYGNYDNLLSQFGCMQVSSSSSSHSLSASDTGLPQRSGSNIEQYIHDLDSNSFELDLQFSEDEKRLLLEKQAGGNPWHQFVENNLILKMGPVDKRKGLFARRRQLLLTEGPHLYYVDPVNKVLKGEIPWSQELRPEAKNFKTFFVHTPNRTYYLMDPSGNAHKWCRKIQEVWRQRYQSHPDAAVQ
# Legend:
# [1] = biological target: T3, spleen tyrosine kinase (SYK) (Homo sapiens, UniProt P43405); assay: microscale thermophoresis (MST) with GFP-fused SYK in cell lysate; supported by in vitro kinase activation of bacterially expressed SYK; format: binding; design: full-length SYK-EmerGFP (HEK293T lysate)
# [2] = biological target: T3, spleen tyrosine kinase (SYK); assay: microscale thermophoresis (MST) with GFP-fused SYK in cell lysate; format: binding; design: SYK-EmerGFP (HEK293T lysate)
# [3] = biological target: T3, spleen tyrosine kinase (SYK); assay: microscale thermophoresis (MST) with GFP-fused SYK in cell lysate; supported by in vitro kinase activation of bacterially expressed SYK; format: binding; design: full-length SYK-EmerGFP (HEK293T lysate); remark: listed apart in the source
# [4] = biological target: PDK1^9CS with Cys21 rescued (human) (UniProt O15530); assay: non-reducing gel and immunoblot; A375 cells in glucose-free medium for 3 h, with or without NAC (5 mM) or GSH (2.5 mM); PDK1 monomer and dimer bands under non-reducing conditions
# [5] = biological target: PDK1^9CS with Cys23 rescued (human) (UniProt O15530); assay: as above
# [6] = biological target: T1, endogenous PDK1 (human (endogenous in …)); assay: as above; settings: remark: other sources report otherwise
# [7] = biological target: T2, PDK1 (exogenous, HA- or Flag-tagged) …; assay: as above; settings: remark: other sources report otherwise
molecule,measurement,setting,value
Nc1ncnc2c1ncn2[C@@H]1O[C@H](COP(=O)(O)OP(=O)(O)O)[C@@H](O)[C@H]1O [ADP],Kd,[1],42.4 ± 19.1 µM
NC(=O)C1=CN([C@@H]2O[C@H](COP(=O)(O)OP(=O)(O)OC[C@H]3O[C@@H](n4cnc5c(N)ncnc54)[C@H](OP(=O)(O)O)[C@@H]3O)[C@@H](O)[C@H]2O)C=CC1 [NADPH],Kd,[2],232 ± 16.5 µM
NC(=O)c1ccc[n+]([C@@H]2O[C@H](COP(=O)([O-])OP(=O)(O)OC[C@H]3O[C@@H](n4cnc5c(N)ncnc54)[C@H](OP(=O)(O)O)[C@@H]3O)[C@@H](O)[C@H]2O)c1 [NADP^+],Kd,[3],69.1 ± 16.1 µM
PDK1^9CS with Cys21 rescued (from UniProt O15530 1-556) (enzyme),stoichiometry N,[4],2
PDK1^9CS with Cys23 rescued (from UniProt O15530 1-556) (enzyme),stoichiometry N,[5],2
B1,stoichiometry N,[6],2
B2,stoichiometry N,[7],2

# From paper PMC12331947, “Activation of AKT via a dual mechanism enhances the susceptibility of melanoma cells to glucose deprivation” (Cell Death & Disease, 2025)
